{
  "source": "the supplement of paper PMC9112550",
  "about": "“Optimization of the antimicrobial peptide Bac7 by deep mutational scanning” (BMC Biology, 2022);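 also: peptides expressed intracellularly from a pBAD plasmid library in pooled LB shake-flask culture, induced with 0.3% L-arabinose, DNA abundance read by NGS, three biological replicates, DESeq2 with apeglm shrinkage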",
  "data": [
    {"system": "Escherichia coli TOP10", "experiment": "shrunken log2 fold change of peptide-encoding DNA abundance (4.5 h post-induction vs induction); higher = less antimicrobial activity (less host growth inhibition)", "conditions": "time post-induction: 4.5 h; library: site-saturation at positions 5, 18, 19, 20", "values": [
      {"sequence": "RRIRGRPPRLPRPRPRPQWSPRP", "shrunken log2 fold change": 0.157},
      {"sequence": "RRIRGRPPRLPRPRPRPRALPRP", "shrunken log2 fold change": 0.852},
      {"sequence": "RRIRGRPPRLPRPRPRPRARPRP", "shrunken log2 fold change": 1.09},
      {"sequence": "RRIRGRPPRLPRPRPRPRAVPRP", "shrunken log2 fold change": 1},
      {"sequence": "RRIRGRPPRLPRPRPRPRCGPRP", "shrunken log2 fold change": 0.751},
      {"sequence": "RRIRGRPPRLPRPRPRPRDCPRP", "shrunken log2 fold change": 1.11},
      {"sequence": "RRIRGRPPRLPRPRPRPRDFPRP", "shrunken log2 fold change": 0.619},
      {"sequence": "RRIRGRPPRLPRPRPRPRDQPRP", "shrunken log2 fold change": 1.26},
      {"sequence": "RRIRGRPPRLPRPRPRPRDYPRP", "shrunken log2 fold change": 0.258},
      {"sequence": "RRIRGRPPRLPRPRPRPREVPRP", "shrunken log2 fold change": 1.05},
      {"sequence": "RRIRGRPPRLPRPRPRPRFRPRP", "shrunken log2 fold change": 0.3},
      {"sequence": "RRIRGRPPRLPRPRPRPRFYPRP", "shrunken log2 fold change": 0.189},
      {"sequence": "RRIRGRPPRLPRPRPRPRGDPRP", "shrunken log2 fold change": 0.481},
      {"sequence": "RRIRGRPPRLPRPRPRPRGLPRP", "shrunken log2 fold change": 1.05},
      {"sequence": "RRIRGRPPRLPRPRPRPRGNPRP", "shrunken log2 fold change": 0.995},
      {"sequence": "RRIRGRPPRLPRPRPRPRGVPRP", "shrunken log2 fold change": 0.89},
      {"sequence": "RRIRGRPPRLPRPRPRPRHMPRP", "shrunken log2 fold change": 0.57},
      {"sequence": "RRIRGRPPRLPRPRPRPRKRPRP", "shrunken log2 fold change": 1.21},
      {"sequence": "RRIRGRPPRLPRPRPRPRLCPRP", "shrunken log2 fold change": 1.19},
      {"sequence": "RRIRGRPPRLPRPRPRPRLEPRP", "shrunken log2 fold change": 1.16},
      {"sequence": "RRIRGRPPRLPRPRPRPRLPPRP", "shrunken log2 fold change": 0.851},
      {"sequence": "RRIRGRPPRLPRPRPRPRLYPRP", "shrunken log2 fold change": 0.291},
      {"sequence": "RRIRGRPPRLPRPRPRPRNQPRP", "shrunken log2 fold change": 0.402},
      {"sequence": "RRIRGRPPRLPRPRPRPRPIPRP", "shrunken log2 fold change": 0.635},
      {"sequence": "RRIRGRPPRLPRPRPRPRQHPRP", "shrunken log2 fold change": 0.305},
      {"sequence": "RRIRGRPPRLPRPRPRPRQMPRP", "shrunken log2 fold change": -0.0496},
      {"sequence": "RRIRGRPPRLPRPRPRPRRSPRP", "shrunken log2 fold change": 0.767},
      {"sequence": "RRIRGRPPRLPRPRPRPRRWPRP", "shrunken log2 fold change": 0.841},
      {"sequence": "RRIRGRPPRLPRPRPRPRSMPRP", "shrunken log2 fold change": 0.666},
      {"sequence": "RRIRGRPPRLPRPRPRPRSPPRP", "shrunken log2 fold change": 0.449},
      {"sequence": "RRIRGRPPRLPRPRPRPRVPPRP", "shrunken log2 fold change": 0.356},
      {"sequence": "RRIRGRPPRLPRPRPRPRVSPRP", "shrunken log2 fold change": 0.45},
      {"sequence": "RRIRGRPPRLPRPRPRPRYFPRP", "shrunken log2 fold change": -0.0468},
      {"sequence": "RRIRGRPPRLPRPRPRPSADPRP", "shrunken log2 fold change": 1.91},
      {"sequence": "RRIRGRPPRLPRPRPRPSCGPRP", "shrunken log2 fold change": 0.451},
      {"sequence": "RRIRGRPPRLPRPRPRPSCVPRP", "shrunken log2 fold change": 0.499},
      {"sequence": "RRIRGRPPRLPRPRPRPSDDPRP", "shrunken log2 fold change": 0.108},
      {"sequence": "RRIRGRPPRLPRPRPRPSEEPRP", "shrunken log2 fold change": 0.503},
      {"sequence": "RRIRGRPPRLPRPRPRPSGHPRP", "shrunken log2 fold change": -0.202},
      {"sequence": "RRIRGRPPRLPRPRPRPSGKPRP", "shrunken log2 fold change": 0.367},
      {"sequence": "RRIRGRPPRLPRPRPRPSGMPRP", "shrunken log2 fold change": 0.48},
      {"sequence": "RRIRGRPPRLPRPRPRPSHMPRP", "shrunken log2 fold change": -0.207},
      {"sequence": "RRIRGRPPRLPRPRPRPSIFPRP", "shrunken log2 fold change": 0.415},
      {"sequence": "RRIRGRPPRLPRPRPRPSKSPRP", "shrunken log2 fold change": -0.0596},
      {"sequence": "RRIRGRPPRLPRPRPRPSLMPRP", "shrunken log2 fold change": 0.5},
      {"sequence": "RRIRGRPPRLPRPRPRPSMNPRP", "shrunken log2 fold change": 0.156},
      {"sequence": "RRIRGRPPRLPRPRPRPSNLPRP", "shrunken log2 fold change": -0.113},
      {"sequence": "RRIRGRPPRLPRPRPRPSNPPRP", "shrunken log2 fold change": 0.14},
      {"sequence": "RRIRGRPPRLPRPRPRPSPAPRP", "shrunken log2 fold change": 0.901},
      {"sequence": "RRIRGRPPRLPRPRPRPSPMPRP", "shrunken log2 fold change": 0.474},
      {"sequence": "RRIRGRPPRLPRPRPRPSQRPRP", "shrunken log2 fold change": 0.181},
      {"sequence": "RRIRGRPPRLPRPRPRPSRFPRP", "shrunken log2 fold change": 0.0371},
      {"sequence": "RRIRGRPPRLPRPRPRPSSRPRP", "shrunken log2 fold change": 0.372},
      {"sequence": "RRIRGRPPRLPRPRPRPSTAPRP", "shrunken log2 fold change": 0.926},
      {"sequence": "RRIRGRPPRLPRPRPRPSTHPRP", "shrunken log2 fold change": 0.159},
      {"sequence": "RRIRGRPPRLPRPRPRPSVMPRP", "shrunken log2 fold change": 0.107},
      {"sequence": "RRIRGRPPRLPRPRPRPSVNPRP", "shrunken log2 fold change": 0.2},
      {"sequence": "RRIRGRPPRLPRPRPRPSVPPRP", "shrunken log2 fold change": 0.215},
      {"sequence": "RRIRGRPPRLPRPRPRPSVTPRP", "shrunken log2 fold change": 0.708},
      {"sequence": "RRIRGRPPRLPRPRPRPSWEPRP", "shrunken log2 fold change": 0.0693},
      {"sequence": "RRIRGRPPRLPRPRPRPSWKPRP", "shrunken log2 fold change": 0.437},
      {"sequence": "RRIRGRPPRLPRPRPRPSWSPRP", "shrunken log2 fold change": 0.425},
      {"sequence": "RRIRGRPPRLPRPRPRPSWYPRP", "shrunken log2 fold change": -0.102},
      {"sequence": "RRIRGRPPRLPRPRPRPSYLPRP", "shrunken log2 fold change": -0.479},
      {"sequence": "RRIRGRPPRLPRPRPRPTANPRP", "shrunken log2 fold change": 1.09},
      {"sequence": "RRIRGRPPRLPRPRPRPTCCPRP", "shrunken log2 fold change": 1.2},
      {"sequence": "RRIRGRPPRLPRPRPRPTDAPRP", "shrunken log2 fold change": 1.14},
      {"sequence": "RRIRGRPPRLPRPRPRPTDLPRP", "shrunken log2 fold change": -0.109},
      {"sequence": "RRIRGRPPRLPRPRPRPTFCPRP", "shrunken log2 fold change": 0.46},
      {"sequence": "RRIRGRPPRLPRPRPRPTFPPRP", "shrunken log2 fold change": 0.347},
      {"sequence": "RRIRGRPPRLPRPRPRPTHMPRP", "shrunken log2 fold change": 0.745},
      {"sequence": "RRIRGRPPRLPRPRPRPTIPPRP", "shrunken log2 fold change": -0.0601},
      {"sequence": "RRIRGRPPRLPRPRPRPTLSPRP", "shrunken log2 fold change": 0.313},
      {"sequence": "RRIRGRPPRLPRPRPRPTLYPRP", "shrunken log2 fold change": 0.598},
      {"sequence": "RRIRGRPPRLPRPRPRPTPCPRP", "shrunken log2 fold change": 0.662}
    ]}
  ]
}
